Tests used:
[1] = Gamma camera imaging of radio-labelled ANF uptake in green vervet monkey; type: in vivo
Experimental: ANF 99-126, rat form: 5 μg) was labelled by the inventors with ^125 I (1 mCi, obtained from commercial sources) using the lactoperoxidase method. The labelled compound was purified on HPLC (C-18 μBondapak™ column) by known methods. 250 μCi of the ^125 I ANF was administered to a 7 kg male monkey of green vervet species, as an intravenous bolus, under pentobarbital anesthesia. Prior to the experiment, the monkey was kept in a single cage with free access to food and water. The animal was subjected to data acquisition for 60 minutes using, as the scintillation detector, a gamma camera attached to a computer. Images and computer data were acquired at 10 second intervals.
A 7 kg anesthetized monkey which had been previously dehydrated for 18 hours was injected with an intravenous bolus injection of 80 μCi of ^131 I-ANF. […] Serial images (0-5, 5-10, 10-20 min.) and time activity curves were done and analyzed of the following regions of interest: the lungs, the kidneys, the upper and lower abdomen. […]
Serial images (0-7, 7-13, 13-20, 20-26, 26-30 min.) and time-activity curves were obtained and analyzed of the regions of interest over the lungs, kidneys, upper and lower abdomen. […]
The maximum and minimum levels of radioactivity over the 3 hour test period are given in each case.

[2] = Gamma camera study of radio-labelled ANF in rabbits; type: in vivo, rabbit
Experimental: A gamma camera study was carried out using ^131 I-ANF in domestic rabbits. The animals were sedated using Nembutal and the ANF was injected via the marginal ear vein. Camera images were taken at 100,000 count intervals up to 2.5 hours post injection.
A subsequent study with ^123 I-ANF in New Zealand White rabbits was also carried out. The animals were sedated with Nembutal and ANF was injected via the marginal ear vein. Camera images were taken at 100,000 intervals up to 1.25 hours post injection.

[3] = adult males of approximately 75 kg, bolus injection; cited from earlier work

| Compound | uptake of radio-label ([1]; 7 kg monkey dehydrated for 18 hours, 80 μCi intravenous bolus) | uptake of radio-label compared with dehydrated animal ([1]; 7 kg monkey hydrated with 120 cc saline, 65 μCi intravenous) | most prominent organ ([2]; lung also visible) | time of rapid accumulation in the kidney ([2]; post-injection, marginal ear vein, Nembutal sedation) [min] | bolus dose giving a medically effective hypotensive effect [3] |
| --- | --- | --- | --- | --- | --- |
| ^131 I-ANF: human ANF (99-126) with methionine in position 110 labelled with ^131 I; in Example 7 rat or human ANF | rapid uptake of radio-label particularly by the kidneys and lungs | lesser uptake of radio-label in both kidney and lung | kidney was the most prominent organ | 3 |  |
| CC[C@H](C)[C@@H]1NC(=O)[C@H](CCCNC(=N)N)NC(=O)[C@H](CC(=O)O)NC(=O)[C@H](CCSC)NC(=O)[C@H](CCCNC(=N)N)NC(=O)CNC(=O)CNC(=O)[C@H](Cc2ccccc2)NC(=O)[C@@H](NC(=O)[C@H](CO)NC(=O)[C@H](CO)NC(=O)[C@H](CCCNC(=N)N)NC(=O)[C@H](CCCNC(=N)N)NC(=O)[C@H](CC(C)C)NC(=O)[C@@H](N)CO)CSSC[C@@H](C(=O)N[C@@H](CC(N)=O)C(=O)N[C@@H](CO)C(=O)N[C@@H](Cc2ccccc2)C(=O)N[C@@H](CCCNC(=N)N)C(=O)N[C@@H](Cc2ccc(O)cc2)C(=O)O)NC(=O)CNC(=O)[C@H](CC(C)C)NC(=O)CNC(=O)[C@H](CO)NC(=O)[C@H](CCC(N)=O)NC(=O)[C@H](C)NC(=O)CNC1=O [ANF, atrial natriuretic factor] |  |  |  |  | greater than 50 μg |

Source: US5326551A, “Nuclear imaging uses of radio-labelled atrial natriuretic factor” (L'Istitut de Recherches Cliniques de Montreal, priority 1991, dated 1994)
